Laboratory results published in IntAct's records for PubMed 22668317.

B1: LPS-assembly protein LptD (Escherichia coli (strain K12)), P31554 (parent)
chain: MKKRIPTLLATMIATALYSQQGLAADLASQCMLGVPSYDRPLVQGDTNDLPVTINADHAKGDYPDDAVFTGSVDIMQGNSRLQADEVQLHQKEAPGQPEPVRTVDALGNVHYDDNQVILKGPKGWANLNTKDTNVWEGDYQMVGRQGRGKADLMKQRGENRYTILDNGSFTSCLPGSDTWSVVGSEIIHDREEQVAEIWNARFKVGPVPIFYSPYLQLPVGDKRRSGFLIPNAKYTTTNYFEFYLPYYWNIAPNMDATITPHYMHRRGNIMWENEFRYLSQAGAGLMELDYLPSDKVYEDEHPNDDSSRRWLFYWNHSGVMDQVWRFNVDYTKVSDPSYFNDFDNKYGSSTDGYATQKFSVGYAVQNFNATVSTKQFQVFSEQNTSSYSAEPQLDVNYYQNDVGPFDTRIYGQAVHFVNTRDDMPEATRVHLEPTINLPLSNNWGSINTEAKLLATHYQQTNLDWYNSRNTTKLDESVNRVMPQFKVDGKMVFERDMEMLAPGYTQTLEPRAQYLYVPYRDQSDIYNYDSSLLQSDYSGLFRDRTYGGLDRIASANQVTTGVTSRIYDDAAVERFNISVGQIYYFTESRTGDDNITWENDDKTGSLVWAGDTYWRISERWGLRGGIQYDTRLDNVATSNSSIEYRRDEDRLVQLNYRYASPEYIQATLPKYYSTAEQYKNGISQVGAVASWPIADRWSIVGAYYYDTNANKQADSMLGVQYSSCCYAIRVGYERKLNGWDNDKQHAVYDNAIGFNIELRGLSSNYGLGTQEMLRSNILPYQNTL
partner: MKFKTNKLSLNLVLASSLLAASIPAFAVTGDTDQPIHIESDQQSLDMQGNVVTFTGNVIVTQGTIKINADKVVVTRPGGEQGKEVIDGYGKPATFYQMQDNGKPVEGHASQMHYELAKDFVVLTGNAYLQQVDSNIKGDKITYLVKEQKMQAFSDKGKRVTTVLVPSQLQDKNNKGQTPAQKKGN

Variants of: B1
Conditions: with lpta_ecoli lptA
For C724S;C725S, the “effect of a mutation on the interaction” value was “disrupting interaction”. For C31S;C725S, the “effect of a mutation on the interaction” value was “disrupting interaction”. With C31S;C173S the “effect of a mutation on the interaction” value was “disrupting interaction”.
